Results as given in US20080207449A1 (CROPDESIGN N V, published 2008).

B1: GAL4 transactivation domain fusion of AtDPa 172-292 (prey in pAD-GAL424) (other, not shown: large carriers)
chain: SLESLMSRNQEMVVKTQGPAEGFTLPFILLETNPHAVVEIEISEDMQLVHLDFNSTPFSVHDDAYILKLMQEQKQEQNRVSSSSSTHHQSQHSSAHSSSSSCIASGTSGPVCWNSGSIDTR
B2: GAL4 transactivation domain fusion of AtDPb 1-193 (prey in pAD-GAL424) (other, not shown: large carriers)
chain: MTTTGSNSNHNHHESNNNNNNPSTRSWGTAVSGQSVSTSGSMGSPSSRSEQTITVVTSTSDTTFQRLNNLDIQGDDAGSQGASGVKKKKRGQRAAGPDKTGRGLRQFSMKVCEKVESKGRTTYNEVADELVAEFALPNNDGTSPDQQQYDEKNIRRRVYDALNVLMAMDIISKDKKEIQWRGLPRTSLSDIEE
B3: GAL4 transactivation domain fusion of AtDPa 1-142 (prey in pAD-GAL424) (other, not shown: large carriers)
chain: MSMEMELFVTPEKQRQHPSVSVEKTPVRRKLIVDDDSEIGSEKKGQSRTSGGGLRQFSVMVCQKLEAKKITTYKEVADEIISDFATIKQNAEKPLNENEYNEKNIRRRVYDALNVFMALDIIARDKKEIRWKGLPITCKKDV
B4: GAL4 transactivation domain fusion of AtDPa 121-213 (prey in pAD-GAL424) (other, not shown: large carriers)
chain: IIARDKKEIRWKGLPITCKKDVEEVKMDRNKVMSSVQKKAAFLKELREKVSSLESLMSRNQEMVVKTQGPAEGFTLPFILLETNPHAVVEIEI
B5: GAL4 transactivation domain fusion of AtDPa 42-142 (prey in pAD-GAL424) (other, not shown: large carriers)
chain: EKKGQSRTSGGGLRQFSVMVCQKLEAKKITTYKEVADEIISDFATIKQNAEKPLNENEYNEKNIRRRVYDALNVFMALDIIARDKKEIRWKGLPITCKKDV
B6: GAL4 transactivation domain fusion of AtDPa 1-292 (prey in pAD-GAL424) (other, not shown: large carriers)
chain: MSMEMELFVTPEKQRQHPSVSVEKTPVRRKLIVDDDSEIGSEKKGQSRTSGGGLRQFSVMVCQKLEAKKITTYKEVADEIISDFATIKQNAEKPLNENEYNEKNIRRRVYDALNVFMALDIIARDKKEIRWKGLPITCKKDVEEVKMDRNKVMSSVQKKAAFLKELREKVSSLESLMSRNQEMVVKTQGPAEGFTLPFILLETNPHAVVEIEISEDMQLVHLDFNSTPFSVHDDAYILKLMQEQKQEQNRVSSSSSTHHQSQHSSAHSSSSSCIASGTSGPVCWNSGSIDTR
notes: also called full-length AtDPa prey
B7: GAL4 transactivation domain fusion of AtDPb 182-263 (prey in pAD-GAL424) (other, not shown: large carriers)
chain: GLPRTSLSDIEELKNERLSLRNRIEKKTAYSQELEEQYVGLQNLIQRNEHLYSSGNAPSGGVALPFILVQTRPHATVEVEI
B8: GAL4 transactivation domain fusion of AtDPa 42-292 (prey in pAD-GAL424) (other, not shown: large carriers)
chain: EKKGQSRTSGGGLRQFSVMVCQKLEAKKITTYKEVADEIISDFATIKQNAEKPLNENEYNEKNIRRRVYDALNVFMALDIIARDKKEIRWKGLPITCKKDVEEVKMDRNKVMSSVQKKAAFLKELREKVSSLESLMSRNQEMVVKTQGPAEGFTLPFILLETNPHAVVEIEISEDMQLVHLDFNSTPFSVHDDAYILKLMQEQKQEQNRVSSSSSTHHQSQHSSAHSSSSSCIASGTSGPVCWNSGSIDTR
B9: GAL4 transactivation domain fusion of AtDPa 121-292 (prey in pAD-GAL424) (other, not shown: large carriers)
chain: IIARDKKEIRWKGLPITCKKDVEEVKMDRNKVMSSVQKKAAFLKELREKVSSLESLMSRNQEMVVKTQGPAEGFTLPFILLETNPHAVVEIEISEDMQLVHLDFNSTPFSVHDDAYILKLMQEQKQEQNRVSSSSSTHHQSQHSSAHSSSSSCIASGTSGPVCWNSGSIDTR
B10: GAL4 transactivation domain fusion of AtDPb 182-385 (prey in pAD-GAL424) (other, not shown: large carriers)
chain: GLPRTSLSDIEELKNERLSLRNRIEKKTAYSQELEEQYVGLQNLIQRNEHLYSSGNAPSGGVALPFILVQTRPHATVEVEISEDMQLVHFDFNSTPFELHDDNFVLKTMKFCDQPPQQPNGRNNSQLVCHNFTPENPNKGPSTGPTPQLDMYETHLQSQQHQQHSQLQIIPMPETNNVTSSADTAPVKSPSLPGIMNSSMKPEN
B11: c-myc-tagged AtDPa 1-142, in vitro translated (other)
chain: EQKLISEEDLEQKLISEEDLMSMEMELFVTPEKQRQHPSVSVEKTPVRRKLIVDDDSEIGSEKKGQSRTSGGGLRQFSVMVCQKLEAKKITTYKEVADEIISDFATIKQNAEKPLNENEYNEKNIRRRVYDALNVFMALDIIARDKKEIRWKGLPITCKKDV
notes: also called c-myc-AtDPa 1-142
B12: c-myc-tagged AtDPb 1-193, in vitro translated (other)
chain: EQKLISEEDLEQKLISEEDLMTTTGSNSNHNHHESNNNNNNPSTRSWGTAVSGQSVSTSGSMGSPSSRSEQTITVVTSTSDTTFQRLNNLDIQGDDAGSQGASGVKKKKRGQRAAGPDKTGRGLRQFSMKVCEKVESKGRTTYNEVADELVAEFALPNNDGTSPDQQQYDEKNIRRRVYDALNVLMAMDIISKDKKEIQWRGLPRTSLSDIEE
notes: also called c-myc-AtDPb 1-193

Biological target: T1, pGBTE2Fb-Rb: GAL4 DNA-binding domain fusion of AtE2Fb amino acids 1-385 (lacking the Rb-binding domain) (Arabidopsis)
T1 construct: also called E2F3 N-terminal; E2Fb (=E2F3) N-terminal domain
Test: yeast two-hybrid, growth on His- minimal medium; legend: -, no interaction

Row | Binder | binding result
1 | B1 | no binding
2 | B2 | no binding
3 | B3 | no binding
4 | B4 | no binding
5 | B5 | no binding

Biological target: T2, pGBTE2Fa226-356: GAL4 DNA-binding domain fusion of AtE2Fa amino acids 226-356 (Arabidopsis)
T2 construct: also called E2F5 dimerisation domain; E2Fa (=E2F5) dimerization domain
Test: as above

Row | Binder | binding result
6 | B1 | no binding
7 | B2 | no binding
8 | B3 | no binding
9 | B4 | no binding
10 | B5 | no binding

Biological target: T3, pGBT DPa 1-292: GAL4 DNA-binding domain fusion of AtDPa 1-292 (Arabidopsis thaliana)
T3 construct: its construction is not described
Test: as above

Row | Binder | binding result
11 | B6 | no binding

Biological target: T1, pGBTE2Fb-Rb: GAL4 DNA-binding domain …
Test: yeast two-hybrid, growth on His- minimal medium; legend: +, positive interaction
Description: (§1) Different combinations between bait (pGBTE2Fa226-356, pGBTE2Fb-Rb, or pGBTE2Fb 1-127, SEQ ID NO:207) and prey constructs were transformed into yeast cells and assayed for their ability to grow on His⁻ minimal media after 3 days of incubation at 30° C. Bait plasmids co-transformed with empty pAD-GAL424 and prey plasmids co-transformed with empty pGBT9 were assessed along as controls for the specificity of the interaction.
(§2) Different combinations between AtE2Fs bait and AtDPs prey constructs were tested for growth on His minimal media. −, no interaction; +, positive interaction; NT, not tested.

Row | Binder | binding result
12 | B7 | binds
13 | B8 | binds
14 | B6 | binds
15 | B9 | binds
16 | B10 | binds

Biological target: T2, pGBTE2Fa226-356: GAL4 DNA-binding …
Test: as above
Description: as §1, §2

Row | Binder | binding result
17 | B7 | binds
18 | B8 | binds
19 | B9 | binds
20 | B10 | binds

Biological target: T4, HA-tagged wild-type AtE2Fb, in vitro translated (Arabidopsis, UniProt Q9FV71 1-469)
T4 construct: wild-type (whole) protein; also called HA-AtE2Fb; E2F3
T4 sequence (Q9FV71 1-469, tags or fused parts left off): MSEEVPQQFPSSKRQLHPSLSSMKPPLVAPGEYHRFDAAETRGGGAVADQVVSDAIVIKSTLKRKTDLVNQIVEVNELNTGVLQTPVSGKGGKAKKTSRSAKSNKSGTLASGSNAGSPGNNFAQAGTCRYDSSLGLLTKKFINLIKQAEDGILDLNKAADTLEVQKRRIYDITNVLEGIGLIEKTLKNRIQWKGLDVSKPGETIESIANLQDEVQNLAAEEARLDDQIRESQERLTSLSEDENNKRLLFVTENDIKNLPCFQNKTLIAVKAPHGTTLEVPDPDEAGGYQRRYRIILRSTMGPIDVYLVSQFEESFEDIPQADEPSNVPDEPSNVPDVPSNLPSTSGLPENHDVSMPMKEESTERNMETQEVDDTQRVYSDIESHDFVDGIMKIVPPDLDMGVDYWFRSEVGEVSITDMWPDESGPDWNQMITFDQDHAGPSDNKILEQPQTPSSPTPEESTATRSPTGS
Test: co-immunoprecipitation (anti-c-myc) of in vitro co-translated tagged proteins, SDS-PAGE autoradiography
Description: In vitro transcription and translation experiments were performed using the TNT T7-coupled wheat germ extract kit (Promega) primed with appropriate plasmids for 90 min at 30° C. For immunoprecipitation, 10 μl of the total in vitro translated extract (50 μl) was diluted at 1:5 in Nonidet P40 buffer (50 mM Tris, pH 7.4, 150 mM NaCl, 1% Nonidet P40, 1 mM phenylmethylsulfonyl fluoride, 10 μg/ml leupeptin/aprotinin/pepstatin) and incubated for 2 h at 4° C. with anti-c-myc (9E10; BabCo) or anti-HA (16B12; BabCo) antibodies. Protein-A-Sepharose (40 μl 25% (v/v)) was added and incubated for 1 h at 4° C., then the beads were washed four times with Nonidet P40 buffer. Immune complexes were eluted with 10 μl […] sodium dodecyl sulfate (SDS) sample buffer and analyzed by 10% or 15% SDS-PAGE and by autoradiography.
Similar results were obtained by two-hybrid analysis (see Table 5 of Example 12). To test whether the structural requirements for heterodimerization of the AtDPs were similar to those of their animal homologs, several deletion mutants of AtDPa and AtDPb were constructed (for a schematic illustration, see FIGS. 52 and 53), tagged with the c-myc epitope (FIGS. 54 and 55, panels A). The interactions between the mutant AtDPs and AtE2Fb were analyzed in immunoprecipitation experiments with the specific anti-HA or anti-c-myc antibodies ([…], panels B and C, respectively). […]

Row | Binder | binding result
21 | B11 | no binding
22 | B12 | no binding

Biological target: T5, empty pGBT9 (GAL4 DNA-binding domain alone) (UniProt P04386 1-147)
T5 construct: empty bait vector, control for specificity; also called pBGT9
Test: yeast two-hybrid, growth on His- minimal medium; empty bait vector control; legend: -, no interaction
Description: as §1, §2

Row | Binder | binding result
23 | B7 | no binding
24 | B1 | no binding
25 | B3 | no binding
26 | B4 | no binding
27 | B5 | no binding
